Experimental data published in patent US20140303084.
Numbering of substitutions follows the chain as printed.

What was measured:
[1] = system: T1, AQWVGRGQWA IRAPG KLTCLASYCWLFWTGIA
T1 sequence: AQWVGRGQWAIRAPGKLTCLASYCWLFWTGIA

[2] = system: T2, CGGGLVPRGGG-RRAPGKLT-Asp-LASY-Lys-WLFWTGIA
T2 sequence: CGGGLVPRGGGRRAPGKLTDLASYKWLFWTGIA

HQQRRKLTCLAGYCWLFVLGPS = system: T3, HQQRRKLTCLAGYCWLFVLGPS
T3 sequence: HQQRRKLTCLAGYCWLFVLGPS

KLTCLASACWLF = system: T4, KLTCLASACWLF
T4 sequence: KLTCLASACWLF

KLTCLASQCWLF = system: T5, KLTCLASQCWLF
T5 sequence: KLTCLASQCWLF

KLTCLASYCQLV = system: T6, KLTCLASYCQLV
T6 sequence: KLTCLASYCQLV

KLTCLASYCWYF = system: T7, KLTCLASYCWYF
T7 sequence: KLTCLASYCWYF

KLTCLASYCwLF [3] = system: T8, KLTCLASYCwLF
T8 sequence: KLTCLASYCWLF

KLTCLGSYCWLF = system: T9, KLTCLGSYCWLF
T9 sequence: KLTCLGSYCWLF

KLTcLASYCWLF [4] = system: T10, KLTcLASYCWLF
T10 sequence: KLTCLASYCWLF

[5] = system: T11, NGALGFRSVV PRAAG KLTCLASYCWLFWTGIA
T11 sequence: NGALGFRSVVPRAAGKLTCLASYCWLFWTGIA

[6] = system: T12, PEG16-Lys(PEG2-Biotin)-PEG16-rRAPGKLTCLASYCWLFWTGIA
T12 sequence: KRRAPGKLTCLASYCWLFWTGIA

[7] = system: T13, PRIRTSGPGSRSASGKLTCLASYCWLFWTGIA
T13 sequence: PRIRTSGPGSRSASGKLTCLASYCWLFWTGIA

[8] = system: T14, PRIRTVGPGSRSASGKLTCLASYCWLFLTGIA
T14 sequence: T13 sequence with S6V, W28L

[9] = system: T15, PRIRTVGPGSRSASGKLTCLASYCWLFWTSIA
T15 sequence: T13 sequence with S6V, G30S

[10] = system: T16, PRSRTVGPGSRSASGKLTCLASYCWLFWTGIA
T16 sequence: T13 sequence with I3S, S6V

[11] = system: T17, RK(PEG2-Biotin)APGKLTCLASYCWLFWTGIA
T17 sequence: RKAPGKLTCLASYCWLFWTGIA

[12] = system: T18, RR-MeAla-PGKLTCLASYCWLFWTGIA
T18 sequence: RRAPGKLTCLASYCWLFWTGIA

RRAPAKLQCLASYCWLFWTGIA = system: T19, RRAPAKLQCLASYCWLFWTGIA
T19 sequence: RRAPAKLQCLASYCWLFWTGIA

[13] = system: T20, RRAPGKLK(PEG2-Biotin)CLASYCWLFWTGIA
T20 sequence: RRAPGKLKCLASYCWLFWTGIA

RRAPGKLQCLASYCWLFWAGIA = system: T21, RRAPGKLQCLASYCWLFWAGIA
T21 sequence: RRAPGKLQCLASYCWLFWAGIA

[14] = system: T22, RRAPGKLQCLASYCWLFWTG-(1-Nal)-A
T22 sequence: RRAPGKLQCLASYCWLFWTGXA

[15] = system: T23, RRAPGKLQCLASYCWLFWTG-Cha-A
T23 sequence: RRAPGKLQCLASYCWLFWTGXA

RRAPGKLQCLASYCWLFWTGAA = system: T24, RRAPGKLQCLASYCWLFWTGAA
T24 sequence: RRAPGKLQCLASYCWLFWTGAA

RRAPGKLQCLASYCWLFW = system: T25, RRAPGKLQCLASYCWLFW
T25 sequence: RRAPGKLQCLASYCWLFW

[16] = system: T26, RRAPGKLT-Dab-LASY-Asp-WLFWTGIA-COOH
T26 sequence: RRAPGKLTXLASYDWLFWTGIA

[17] = system: T27, RRAPGKLTC-MeLeu-ASYCWLFWTGIA
T27 sequence: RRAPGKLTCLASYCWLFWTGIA

[18] = system: T28, RRAPGKLTCLASYCWK(PEG2-Biotin)FWTGIA
T28 sequence: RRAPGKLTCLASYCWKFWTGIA

[19] = system: T29, RRAPGKLTCLASYCWLF WAGIA PHRPLKERVR
T29 sequence: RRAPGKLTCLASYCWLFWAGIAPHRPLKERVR

[20] = system: T30, RRAPGKLTCLASYCWLFWTGI-MeAla
T30 sequence: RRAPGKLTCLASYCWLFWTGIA

[21] = system: T31, RRAPGKLTCLASYCWLFWTGIK(PEG2-Biotin)
T31 sequence: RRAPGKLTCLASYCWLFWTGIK

RRAPGKLTCLASYCWLFWtGIA [22] = system: T32, RRAPGKLTCLASYCWLFWtGIA
T32 sequence: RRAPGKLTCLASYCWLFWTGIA

RRAPGKLTCLAsYCWLFWTGIA [23] = system: T33, RRAPGKLTCLAsYCWLFWTGIA
T33 sequence: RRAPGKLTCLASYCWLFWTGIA

[24] = system: T34, RRAPGKLTCLK(PEG2-Biotin)SYCWLFWTGIA
T34 sequence: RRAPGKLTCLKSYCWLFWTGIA

RRAPGKLTcLASYCWLFWTGIA [25] = system: T35, RRAPGKLTcLASYCWLFWTGIA
T35 sequence: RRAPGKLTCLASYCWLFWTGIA

RRAPGKLtCLASYCWLFWTGIA [26] = system: T36, RRAPGKLtCLASYCWLFWTGIA
T36 sequence: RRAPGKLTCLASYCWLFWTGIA

RRAPGkLTCLASYCWLFWTGIA [27] = system: T37, RRAPGkLTCLASYCWLFWTGIA
T37 sequence: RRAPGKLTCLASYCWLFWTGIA

RRAPKKLQCLASYCWLFWTGIA = system: T38, RRAPKKLQCLASYCWLFWTGIA
T38 sequence: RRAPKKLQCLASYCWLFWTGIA

RRRRRKLTCLASYCWLFRRRRR = system: T39, RRRRRKLTCLASYCWLFRRRRR
T39 sequence: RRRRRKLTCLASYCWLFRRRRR

[28] = system: T40, RSHSLDRMAG RRAPG KLTCLASYCWLFWTGIA
T40 sequence: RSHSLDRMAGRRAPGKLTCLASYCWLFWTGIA

[29] = system: T41, SKQGRPISPDrRAAGKLTCLAS-NMeTyr-CWLFWTGIA
T41 sequence: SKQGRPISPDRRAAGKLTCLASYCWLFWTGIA

[30] = system: T42, SKQGRPISPDrRAAGKLTCLASYCWLF
T42 sequence: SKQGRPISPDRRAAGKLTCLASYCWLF

[31] = system: T43, SKQGRPISSDrRASGKLTCLASYCWLFWTGIA
T43 sequence: T41 sequence with P9S, A14S

[32] = system: T44, VGSGDERALP SRASG KLTCLASYCWLFWTGIA
T44 sequence: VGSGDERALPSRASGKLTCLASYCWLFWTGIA

VSGTGRLTCVASYCWMFQLGSF = system: T45, VSGTGRLTCVASYCWMFQLGSF
T45 sequence: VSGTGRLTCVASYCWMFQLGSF

WVPQWKVTCLASCSRLFHGFDA = system: T46, WVPQWKVTCLASCSRLFHGFDA
T46 sequence: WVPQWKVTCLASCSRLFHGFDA

compound B = system: T47, compound B
T47 sequence: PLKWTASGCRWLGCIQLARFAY

kLTCLASYCWLF [33] = system: T48, kLTCLASYCWLF
T48 sequence: KLTCLASYCWLF

rRAAGKATCLASACW LAATGIA = system: T49, rRAAGKATCLASACW LAATGIA
T49 sequence: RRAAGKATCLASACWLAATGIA

rRAPGKLTCLASYCWLFSTGIA = system: T50, rRAPGKLTCLASYCWLFSTGIA
T50 sequence: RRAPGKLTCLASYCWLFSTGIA

[34] = system: T51, rRAPGKLTCLASYCWLFWTGIA-PEG16-Lys(PEG2-Biotin)-PEG16-Lys(palmitoyl)
T51 sequence: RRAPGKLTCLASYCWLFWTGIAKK

Question: What does the source list for human Factor IXa?
Answer: Vmax, FXa generation assay [1]: > 2; Vmax, FXa generation assay [2]: > 2; Vmax, FXa generation assay (HQQRRKLTCLAGYCWLFVLGPS): > 2; Vmax, FXa generation assay (KLTCLASACWLF): > 2; Vmax, FXa generation assay (KLTCLASQCWLF): > 2; Vmax, FXa generation assay (KLTCLASYCQLV): > 2; Vmax, FXa generation assay (KLTCLASYCWYF): > 2; Vmax, FXa generation assay (KLTCLASYCwLF [3]): > 3; Vmax, FXa generation assay (KLTCLGSYCWLF): > 2; Vmax, FXa generation assay (KLTcLASYCWLF [4]): > 2; Vmax, FXa generation assay [5]: > 2; Vmax, FXa generation assay [6]: > 3; Vmax, FXa generation assay [7]: > 3; Vmax, FXa generation assay [8]: > 3; Vmax, FXa generation assay [9]: > 3; Vmax, FXa generation assay [10]: > 3; Vmax, FXa generation assay; (++) means 1-2 [11]: (++); Vmax, FXa generation assay [12]: > 3; Vmax, FXa generation assay (RRAPAKLQCLASYCWLFWTGIA): > 2; Vmax, FXa generation assay; (++) means 1-2 [13]: (++); Vmax, FXa generation assay (RRAPGKLQCLASYCWLFWAGIA): > 3; Vmax, FXa generation assay [14]: > 2; Vmax, FXa generation assay [15]: > 3; Vmax, FXa generation assay (RRAPGKLQCLASYCWLFWTGAA): > 3; Vmax, FXa generation assay (RRAPGKLQCLASYCWLFW): > 2; Vmax, FXa generation assay; (++) means 1-2 [16]: (++); Vmax, FXa generation assay; (++) means 1-2 [17]: (++); Vmax, FXa generation assay [18]: > 3; Vmax, FXa generation assay [19]: > 2; Vmax, FXa generation assay; (++) means 1-2 [20]: (++); Vmax, FXa generation assay; (++) means 1-2 [21]: (++); Vmax, FXa generation assay; (++) means 1-2 (RRAPGKLTCLASYCWLFWtGIA [22]): (++); Vmax, FXa generation assay; (++) means 1-2 (RRAPGKLTCLAsYCWLFWTGIA [23]): (++); Vmax, FXa generation assay; (++) means 1-2 [24]: (++); Vmax, FXa generation assay; (++) means 1-2 (RRAPGKLTcLASYCWLFWTGIA [25]): (++); Vmax, FXa generation assay; (++) means 1-2 (RRAPGKLtCLASYCWLFWTGIA [26]): (++); Vmax, FXa generation assay (RRAPGkLTCLASYCWLFWTGIA [27]): > 2; Vmax, FXa generation assay; (++) means 1-2 (RRAPKKLQCLASYCWLFWTGIA): (++); Vmax, FXa generation assay (RRRRRKLTCLASYCWLFRRRRR): > 2; Vmax, FXa generation assay [28]: > 3; Vmax, FXa generation assay [29]: > 0.3; Vmax, FXa generation assay [30]: > 3; Vmax, FXa generation assay [31]: > 3; Vmax, FXa generation assay [32]: > 2; Vmax, FXa generation assay; (++) means 1-2 (VSGTGRLTCVASYCWMFQLGSF): (++); Vmax, FXa generation assay (WVPQWKVTCLASCSRLFHGFDA): > 1.5; Vmax, FXa generation assay with hFIXa; (++) means 1-2 (compound B): (++); Vmax, FXa generation assay (kLTCLASYCWLF [33]): > 2; Vmax, FXa generation assay (rRAAGKATCLASACW LAATGIA): > 3; Vmax, FXa generation assay; (++) means 1-2 (rRAPGKLTCLASYCWLFSTGIA): (++); Vmax, FXa generation assay [34]: > 3
